Consider two molecules from patent US20230035798A1 (CAPELLA BIOSCIENCE, published 2023).

The target of assay [1] is T1, human LIGHT (TNFSF14), full length, membrane-bound (214E allele) (human, UniProt O43557 1-240).
T1 construct: also called membrane LIGHT; human membrane LIGHT
Briefly: flow cytometry, mAb binding to EL4 cells stably expressing human LIGHT [upper panel]. For orientation: A flow cytometer gives signals particle by particle.

For assay [2], the target named is T1, human LIGHT (TNFSF14), full length, …. Briefly: flow cytometry, EL4-LIGHT cells.
Target sequence in this assay (O43557 whole entry K214E): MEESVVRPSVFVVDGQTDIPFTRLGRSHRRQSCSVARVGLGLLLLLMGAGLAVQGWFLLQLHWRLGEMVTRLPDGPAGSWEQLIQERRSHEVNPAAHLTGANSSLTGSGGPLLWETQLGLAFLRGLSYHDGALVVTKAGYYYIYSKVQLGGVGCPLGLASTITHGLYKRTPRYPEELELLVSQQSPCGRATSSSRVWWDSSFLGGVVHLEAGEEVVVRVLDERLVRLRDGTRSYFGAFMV
For assay [3] the target is unchanged. Briefly: flow cytometry, mAb binding to EL4 cells stably expressing human LIGHT [lower panel].
Assay [4] concerns the target T2, soluble LIGHT, amino acids 64-240 (Abcam ab82123) (UniProt O43557 64-240).
T2 construct: range 64-240; bought protein; also called 64-240 LIGHT; Soluble LIGHT 64-240
Briefly: SPR (BIAcore), mAb captured on anti-human Fc, soluble LIGHT in flow. The protocol: (§1) Real-time binding interactions between captured antibody (chimeric anti-membrane LIGHT monoclonal antibody) captured on a biosensor matrix via goat anti-human Fe IgG and recombinant soluble LIGHT were measured by surface plasmon resonance (SPR) using the BIAcore system (GE Healthcare) according to manufacturer's instructions and standard procedures. Briefly, soluble LIGHT was diluted in HBS running buffer (GE Healthcare) and aliquots were injected through the immobilized protein matrices at a flow rate of […]. BIAevaluation software was used to calculate association rate (ka), dissociation rate (kd) and affinity (KD).
(§2) The specificity of two lead anti-membrane LIGHT mAbs to soluble LIGHT was determined by BIAcore analysis and compared to the KD calculated from the EC50 values in Table 7 (results in Table 9). In brief, mAbs 3D12, 3B04 were compared to a mAb that binds both soluble and membrane LIGHT, F19, (F19 IgG4 mAb from EP2292663). An irrelevant anti-HEL mAb, 2A11, was used as a negative control. The mAbs were captured on an anti-human Fc mAb coated chip and soluble LIGHT was passed over the surface and the kinetic parameters were calculated using BIAcore 3000 software. The soluble LIGHT preparations used were amino acids 74-240 LIGHT (R&D Systems, 664-LI-025) and 64-240 LIGHT (Abcam, ab82123).
On the technique in general: In SPR one partner is held on a chip, and binding of the other changes the refractive index at the surface.

The target in assay [5] is T3, recombinant human soluble LIGHT, amino acids 74-240 (R&D Systems 664-LI-025) (human, UniProt O43557 74-240).
T3 construct: range 74-240; also called 74-240 LIGHT; Soluble LIGHT 74-240
T3 chain: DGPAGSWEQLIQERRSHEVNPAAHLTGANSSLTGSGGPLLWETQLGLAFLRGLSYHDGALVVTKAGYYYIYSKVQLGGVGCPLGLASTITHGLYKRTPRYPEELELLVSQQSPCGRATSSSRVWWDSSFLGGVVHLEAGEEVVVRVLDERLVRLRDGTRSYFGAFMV
The assay is described as above. The protocol:
as §1, §2

Assay [6] concerns the target T3, recombinant human soluble LIGHT, amino …. Briefly: native mass spectrometry, LIGHT:antibody 1:5. The protocol: The LIGHT protein (R&D Systems 664-LI-025) was solubilised in PBS buffer at a final concentration of 4 μM, whereas the mAbs were maintained at 20 μM in PBS. The samples were buffer exchanged into ammonium acetate pH 7.4 at different concentrations via a column with a cut-off of 40 kDa prior to mass spectrometry optimisation. […] Samples were stored at 4° C. and were used within one week. The antibodies were diluted to 1 μM prior to MSanalysis. For complex formation the LIGHT protein was incubated with each antibody separately in 1:5 ratio on ice and native mass measurements were performed 30 min after incubation.
Native mass spectroscopy was utilised to determine the ratio of mAb bound to native trimeric LIGHT. The measured mass of 3B04 (IgG4) was 147256±0.7 Da and the F19 anti-LIGHT mAb, (IgG4 mAb from EP2292663) was 147364±6.6 Da. Unlike the monoclonal antibodies the LIGHT protein was highly heterogeneous as expected, due to post-translational glycosylation. Two major populations of the light protein were recorded with measured masses of 68 kDa and 71 kDa. Both of these proteoforms are higher in mass than the theoretical trimeric mass of the protein, 62827.38 Da. […] In the case of LIGHT binding with 3B04, the stoichiometry can be assigned to one antibody per one LIGHT protein (masses of 219630±221 Da and 216960±380 were recorded).

The target of assay [7] is T1, human LIGHT (TNFSF14), full length, …. Briefly: flow cytometry, EL4-LIGHT cells, maximum signal compared with F19 and F23. The text has this:
FIG. 7 depicts the flow cytometry analysis of the anti-membrane LIGHT mAbs (3B04 and 3D12) binding to LIGHT stably expressed on EL4 cells. The maximum signal of the IgG4 mAbs 3B04 and 3D12 binding to membrane LIGHT is approximately 40000 MFI. In contrast anti-LIGHT mAbs F19 and F23 (IgG4 mAbs from EP2292663) gave a maximal signal of approximately 120000 MFI. The ratio of binding of mAb F19 and mAb F23 is approximately 3 times that of the anti-membrane LIGHT mAbs 3B04 and 3D12. […] Other mAbs of this invention; 2E08, 3A07, 3C10, 3E09 and 2B11 also bind LIGHT in a 1:1 ratio when compared to mAbs F19 and F23 by flow cytometry.

For orientation: EC50 (read off the curve) means the concentration giving half of the maximal effect. Read a high EC50 (read off the curve) as lower potency in that assay. A word on the EC50: it is the concentration that produces a half-maximal response. A high value points to a less potent agent. The Kd is the constant that tells how readily two partners part at equilibrium. As a reminder, the koff is the first-order rate constant of dissociation. What is called kon is the rate constant with which the complex forms.

B1: 3B04 (antibody, human IgG4, V domains shown)
VH: QVQLQQPGAELVRPGASVTLSCKASGYTFTDYEMHWVKQTPVHGLEWIGEIDPETGDTAYSQKFKGKATLTADKSSSTAYMEFRSLTSEDSAVYYCSRETDYFFDYWGQGTTLTVSS
VL: DIQMTQTPASLSASVGETVTITCGASENIYGALNWYQRKQGKSPQLLIYGATNLADGMSSRFSGSGSGRQYSLKISSLHPDDFATYYCQNVLTTPWTFGGGTKLEIKR
notes: chimeric: mouse variable domains on human IgG4 HC (S-to-P and L-to-E at 248) and human CL; also called Parental 3B04; 3B04 chimeric
Regarding B1, the “EC50 (read off the curve)” value in assay [1] is about 0.1 nM. This molecule yielded a concentration giving a half-maximal response (EC50) in assay [2] of 0.12 nM. In assay [3], the “EC50 (read off the curve)” value was about 0.2 nM. Moreover, in assay [4], binding was characterised by a dissociation constant (Kd) of 13.8 nM, the dissociation rate constant (koff) is 0.00345 s⁻¹ and the kon is 251000 M⁻¹ s⁻¹. Moreover, in assay [5], the dissociation constant Kd worked out at 15.7 nM, the koff was 0.00348 s⁻¹ and the kon amounted to 222000 M⁻¹ s⁻¹. Besides, the “stoichiometry, antibodies per LIGHT trimer” value in assay [6] is 1 antibodies per LIGHT trimer. For the same molecule, the “binding ratio, mAb per LIGHT trimer” value in assay [7] stood at 1 mAb per LIGHT trimer.

B2: 3D12 (antibody, human IgG4, V domains shown)
VH: QVQLQQPGAELVRPGASVTLSCKASDYTFTDSEIHWVKQTPVHGLEWIGEIDPETGGTAYNQKFKGKATLTADKSSSTAYMELRSLTSEDSAVYYCSRETDYFFDYWGQGTTLTVSS
VL: DIQMTQSPASLSASVGETVTITCGASENIYGALNWYQRKQGKSPQLLIYGATNLADGMSSRFSGSGSGRQYSLKISSLHPDDVATYYCQNVLSTPWTFGGGTKLEIKR
notes: chimeric: mouse variable domains on human IgG4 HC (S-to-P and L-to-E at 248) and human CL; also called Parental 3D12; 3D12 chimeric
With B2, a half-maximal effect in assay [2] (EC50) was put at 0.08 nM. Also, the 50% effective concentration (EC50 (read off the curve)) in assay [3] was about 0.2 nM. Besides, in assay [4], the Kd was found to be 10.7 nM, the koff was determined as 0.00234 s⁻¹ and the kon amounted to 219000 M⁻¹ s⁻¹. For the same molecule, in assay [5], the Kd was determined as 14 nM, the koff was 0.00235 s⁻¹ and the association rate constant (kon) is 168000 M⁻¹ s⁻¹. Moreover, the “binding ratio, mAb per LIGHT trimer” value in assay [7] came to 1 mAb per LIGHT trimer.
